± gives the uncertainty stated by the source.

This data set is described as follows: amyloid nucleation score (Sup35N fusion, yeast selection) (log enrichment); library NNK1; higher = more nucleation; inactive = no reads after selection. The method in brief: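 In psi-negative yeast, Sup35N fusions carrying peptides of 20 random codons were induced with 100 μM copper sulfate for 24 hours. The cells then grew 7 days at 30°C on medium lacking adenine and uracil, and plasmid inserts from input and output were Illumina-sequenced, excluding sequences with under 100 input reads. Nucleation score is the DiMSum log enrichment of output over input reads, centred on the mode score of non-aggregating sequences.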

In turn, STPAVDALRYCMTSIAFRKI displayed an amyloid nucleation score of -1.11 ± 0.58. As for MMGIMYLWTWYCN, the amyloid nucleation score turned out to be 0.385 ± 0.58.

As to REEKV, the amyloid nucleation score amounted to 0.068 ± 0.42. Under CFKFARGGVLI stands 1.32 ± 0.66; under LLNQFLTRSASYTRGTESID, 0.295 ± 0.24. Under SARYL stands 0.496 ± 0.7. For MMGLY the value was -0.038 ± 0.32; for VTRTYLNRMRSMLSGSMFFM, 0.423 ± 0.35. The substance SCPTMYSYVFWVRFQSGTAS returned an amyloid nucleation score of 1.72 ± 0.13. Under YSWILKKWVFVYSLFTSGHM stands 0.278 ± 0.55; under TFYMTSSLST, 0.028 ± 0.67. TRYGVYQYVVDSLINCHLLE showed an amyloid nucleation score of -0.186 ± 0.52.

In turn, ESVLWVFYV returned an amyloid nucleation score of 0.1 ± 0.41.

In the case of WDAGVFWKMYLSTCRTSI, the amyloid nucleation score came to 0.949 ± 0.54. VFLISY registered an amyloid nucleation score of 0.199 ± 0.42. For YATTD the value was -0.776 ± 0.58; for HAGFGFVSSCCYLHWLTGDR, 3.98 ± 0.095; for GGKAIIQCLEW, -0.362 ± 1.2. As to VVHRALLYGNGIVN, the amyloid nucleation score came out at 1.4 ± 0.7. Under NGTWYILSQASFFYELDAYC stands -0.012 ± 0.43. The substance PHVTGGSPCSKHSLRW came in with an amyloid nucleation score of -0.716 ± 0.65. For KRLHRGCWEVGSRGSLKLVN the value was -1.14 ± 1.6.

Substance GDCFFQSYDTVFNFASR gave an amyloid nucleation score of 2.24 ± 0.2. For WFIPNKGTYREAYFLSCLGS the value was -0.954 ± 1.3.

On to SGHRFCAVRSRATGERFYGW, for which the amyloid nucleation score result was “inactive”. For WTYRQLKSAGKEHVYFLKVR the value was -0.031 ± 1.2; for VSRPQMSSTTEHSTTDYFGC, “inactive”; for FAVLHNMMFMKYVRLFLVVT, 0.247 ± 0.45. NNSLKCCLFLMSNLKSSRVN: the amyloid nucleation score amounted to 6.08 ± 0.066.

Substance YFDLWALSVLCCFFGVNSPF registered an amyloid nucleation score of 5.69 ± 0.087. Take FIWDAWLGRKVSESHTVFHS: the amyloid nucleation score came to 0.017 ± 0.21. KCTLYLQFNIEHGCAIFEDK returned an amyloid nucleation score of 2.06 ± 0.64. Regarding VGHPKVFWDGVGSRTILERS, the amyloid nucleation score stood at 0.48 ± 0.74. Regarding CKDCYLITGVVINYPSRPLW, the amyloid nucleation score is 5.985 ± 0.049. Under FLNRYICKFDKVSQHGVRLW stands 0.261 ± 0.84.

Take FIIVEECNFRNRRLTYRLFI: the amyloid nucleation score is 0.816 ± 0.49. Under LKYMYHYVSMKVFVLGISMR stands 0.005 ± 1.7. Under SKDYVDL stands “inactive”. Under LFYCRALRYFASHLDASNMH stands -1.09 ± 0.84. In turn, AFSANF had an amyloid nucleation score of 0.779 ± 0.42. For KYCVN the value was -0.403 ± 0.38; for IVVFSIYYVCSDGGPRVTRR, 1.43 ± 0.3.

Consider SLGLFKIIRKPYHCSAPSQA, for which the amyloid nucleation score is 0.551 ± 0.47.

In turn, QCRQAQLVLFGVSVWTGYVK gave an amyloid nucleation score of -0.083 ± 0.38. Under KIPYVFFGKRTGVSLFRMFD stands 0.202 ± 0.56; under HKFVRIDGEN, 1.54 ± 0.84; under VTMNRIV, 0.501 ± 0.21. IASFVEERLSEIPYLATLGL: the amyloid nucleation score was -0.385 ± 0.46. For MTHAFLRWSYLFRNIWMHVF the value was 0.349 ± 1.2; for GQRSLT, -0.088 ± 0.24; for KGQSRHVSECVGWVSNVASL, 0.461 ± 0.73. For FDFACCTTGIGPFSCDLGSG the value was 7.694 ± 0.052.

In turn, RCHESARKVTSGMCCSGWC showed an amyloid nucleation score of 4.12 ± 0.088. Under IYKLLGRVKSMMFLWYTVHS stands -0.527 ± 0.52; under LEHYRVVLLG, -0.535 ± 0.43; under EKILLG, -1.8 ± 2.4. For the substance ASYGIIVSSLFFNGRGCHWS, the amyloid nucleation score worked out at 3.81 ± 0.096. Substance GAYNWVF came in with an amyloid nucleation score of -0.107 ± 0.55. The substance LLFSPIFLDSGPHTLWLYMF yielded an amyloid nucleation score of 0.491 ± 0.87. Under CRLKH stands 0.123 ± 0.3; under CWMHFPYQVESDGQTNRAFD, 0.041 ± 0.34.

On to GLGDVKNHEFNHVDAEGSGR, for which the amyloid nucleation score is -0.741 ± 0.83. Under IAVFWCFKMNWALMMRTKDM stands 0.13 ± 0.38; under GNRGSSKV, “inactive”; under LWGRFYIYHSLFHRSHHVKL, -0.284 ± 1. For MGCLN the value was 0.082 ± 0.62; for SGDIKSFWMERCFCLVTHGK, -0.115 ± 0.57; for GCVGGWSVEFITLGYWSQRG, 1.17 ± 0.88.

As to WWFRK, the amyloid nucleation score is 0.654 ± 1.1. For LHGLNF the value was 0.843 ± 0.74. In turn, MQWPYCGMTFCYTW gave an amyloid nucleation score of -0.047 ± 0.57.

The substance TIALRMNRINLDFKYCFNSF registered an amyloid nucleation score of 1.49 ± 0.69.

Turning to VPALQQIPYCMI, the amyloid nucleation score amounted to 0.524 ± 0.57.

DYVHFMCHGLGR showed an amyloid nucleation score of -0.185 ± 0.63.

On to FEGALRLTIRSQKD, for which the amyloid nucleation score came to 0.574 ± 0.57.

In the case of TFVSLATTDFPPNFSLKLFV, the amyloid nucleation score was -0.579 ± 0.49.

GWFAR returned an amyloid nucleation score of -0.191 ± 0.57. AAMCLLIWRACRISVDMHMC: the amyloid nucleation score is -0.205 ± 0.27.

With LKARQHFRNHHGMLVQKRWD, the amyloid nucleation score entry was “inactive”. For LMSASNLNAVSKQCIRLRRC the value was 1.48 ± 0.55. Under LEMDRICMMLSDSRFKLTLV stands -0.025 ± 0.21; under RRTLSSGVSLYCYPKLGVAR, -0.24 ± 0.53.

Regarding FFELSVYH, the amyloid nucleation score is -0.174 ± 0.65. In the case of YRPMYMVAEQWYYK, the amyloid nucleation score worked out at 0.896 ± 0.49. On to YEKSFGTYTM, for which the amyloid nucleation score is -0.045 ± 0.28. For DWANSTDFV, the amyloid nucleation score was -0.195 ± 0.18. Under LCGHF stands 4.35 ± 0.051. Under MPTLNYIVKCSREVTGGILD stands “inactive”; under IYDIEEDLCSVSVSGKESWV, -0.307 ± 0.47. The substance TLHVEWSSVIAMLFKMSCGL had an amyloid nucleation score of -0.785 ± 0.88. Under LVMMTDIANWRLPCYFSNLW stands 0.201 ± 0.54; under HVPSFRFFFRDNLI, 0.385 ± 0.46; under NNVAGCLEFHRYQGMCGRSM, 1.04 ± 0.36. For CGPELNESQG the value was -0.485 ± 0.67.

Turning to CEVSIVSLARYVGREDLFDR, the amyloid nucleation score was found to be 0.213 ± 0.65. Regarding VSLHSRINTVSPRKGLGSYS, the amyloid nucleation score was found to be 0.275 ± 0.71. ETACLYLLFMSKACMRMMNS came in with an amyloid nucleation score of -0.219 ± 1.1. YSYLV displayed an amyloid nucleation score of -0.716 ± 0.84. Under IRLTILLSKVDTDE stands 0.885 ± 0.42; under NRLNTTDWYSI, -0.342 ± 0.74; under YTCLHGGSGVPPYLFQEHYS, 0.193 ± 0.39. Under DRPTRLSVIFGRPP stands “inactive”. Consider ILTRVV, for which the amyloid nucleation score turned out to be 0.37 ± 1.1.

Take RVVLCDI: the amyloid nucleation score is 0.261 ± 0.75. Substance HMSHMLLQIYLWLVFWSSGV showed an amyloid nucleation score of 1.42 ± 0.66. Under NCYGYVEKWWGVCTNDPLGR stands -0.133 ± 0.25; under RNLLNFFKISDTSTALDLLY, -0.728 ± 0.52; under DLDKRMVSYDFKICGYKINF, 3.77 ± 0.1. For NFSLIFENMIALFPYPARKR the value was 7.742 ± 0.056; for FKYTHIETVIQVLYFRTWSY, -0.485 ± 0.33. FLVQNRRISEVIELWALLS yielded an amyloid nucleation score of -1.19 ± 2.7.

On to MSRMFRVLHRVLSSW, for which the amyloid nucleation score was -0.538 ± 1.2. RSNPMTVMVSCLDEVVS: the amyloid nucleation score was -0.536 ± 0.49. NLRYSFFFNSDNSRVWECS yielded an amyloid nucleation score of 0.682 ± 0.35.

The substance DMQSEGDRGDHRGSRDCRS registered an amyloid nucleation score of 0.983 ± 1. For VNRGVVVRITWIAKHYCMSE, the amyloid nucleation score amounted to 0.26 ± 0.38. Under VVSDRRFYLLKFKSGVLSLV stands -0.043 ± 0.31. Under LWHEI stands 0.427 ± 0.51. For MPGSTLLSAKMTSLGGTALW the value was 0.392 ± 0.4; for GRLVVGIREGIIS, 0.058 ± 0.35; for TFYLSRDIRLYFSWN, 7.83 ± 0.049. On to YQRSTWSSWNQVRYYHEFQR, for which the amyloid nucleation score amounted to 1.59 ± 0.3.

Turning to GIKRHIEDCLV, the amyloid nucleation score is 1.04 ± 0.46. On to SGVVTCVVFL, for which the amyloid nucleation score was determined as 5.38 ± 0.066. On to DLPLGQRYSCAQVGGWSYYE, for which the amyloid nucleation score is 0.556 ± 0.45. Under KFIIAGNLNQKSTSWV stands 2.23 ± 0.086; under WCHGHYHSSNEMSTI, 1.37 ± 0.69; under ISVKHKFPGANSSVRWDRFW, 3.47 ± 0.11. Under SFSLMGRFRSFMYACIVAAC stands -0.936 ± 0.57. In turn, RKESDNDFSTCVTWQNRHPD displayed an amyloid nucleation score of 0.529 ± 0.74. In the case of GSSENRFF, the amyloid nucleation score entry was “inactive”. For DRWWILNGTTDLSLGWVLEC the value was 0.648 ± 0.97; for RSRLLSFGVNGGWYIKMLIS, -0.028 ± 0.61; for TASNDYLDIDPSMDQSRWCG, 0.518 ± 0.27. For CCHRGCGAFVGWMHQFGWYI the value was -0.186 ± 0.42; for MGTSITI, -0.202 ± 0.84; for FGMLIAVRSR, 0.315 ± 0.29. Under EGRSWLGTESGLYGNVREND stands 0.577 ± 0.68; under FRGFR, -0.235 ± 0.4; under GCYQYWCRSFHVGEIPVP, -0.003 ± 1.1.

DFNSISDAKNCWSYLM returned an amyloid nucleation score of 1.25 ± 0.13. Take RWIPQNMHQLWKASDGNERM: the amyloid nucleation score was -0.697 ± 0.41. Turning to VITIGMFCRIIEGHYVMYLT, the amyloid nucleation score came to 0.089 ± 0.47.

These data come from the supplement of paper PMC12042874.
